Data taken from patent US20240262905A1.
Read-outs that look alike come from different tables or passages of the source.

Legend:
[1] = molecular target: Insulin; experiment: ELISA, plate coated with insulin 5 ug/mL, test article at 100 nM, anti-human Fc-HRP detection
[2] = molecular target: Insulin; experiment: as above; remark: listed apart in the source

Insulin polyreactivity score [1]	Insulin polyreactivity score [2]	Substance
1.4	2.2	Elotuzumab (antibody)
40	18	Lenzilumab (antibody)
